Test results taken from patent US20110142849A1 (IRM, published 2011).

Key:
[1] = target: T1, recombinant human Pcsk9 (aa 31-692) with C-terminal his6 tag (human, UniProt Q8NBP7 31-692); test: Solution Equilibrium Titration (SET), MSD read-out
T1 construct: In the TR-FRET assay it carried a fluorophore (hPcsk9-AF); also called hPCSK9; hPcsk9
Experimental: The binding kinetics of IgGs and Fab fragments were analyzed using a Solution Equilibrium Titration (“SET”) assay. Briefly, serial dilutions of hPCSK9 were added to 60 pM IgG or Fab and incubated overnight. A 96-well Standard Bind microtiter plate (Meso Scale Discovery) was coated with 1 μg/ml hPCSK9 and incubated overnight, washed with PBS/0.05% (w/v) Tween 20, blocked with PBS/5% (w/v) BSA, and washed again. The antibody-antigen preparation was added to the PCSK9-coated Standard Bind plate and incubated for 30 min at room temperature. After three additional washing steps, Sulfo-Tag-labeled goat-anti-human-detection antibody (R32AJ-5, Meso Scale Discovery) was added and incubated one hour at room temperature. After washing the plate three times, Read Buffer (Meso Scale Discovery) was added and electrochemiluminescence (ECL) signals were measured by a Sector Imager 6000 (Meso Scale Discovery). ECL data were processed with the excel add-in XLfit 4.3.2 (ID Business Solutions) using the fitting model applicable for antibodies described in Piehler, et al., (1997) J Immunol Methods 201:189-206.

[2] = target: T2, hAgr2 (human, UniProt O95994); test: specificity ELISA on coated antigen (88 ng per well), antibody at 2 µg/mL, ABS650
T2 construct: panel antigen of the specificity ELISA
T2 sequence (antigen, looked up): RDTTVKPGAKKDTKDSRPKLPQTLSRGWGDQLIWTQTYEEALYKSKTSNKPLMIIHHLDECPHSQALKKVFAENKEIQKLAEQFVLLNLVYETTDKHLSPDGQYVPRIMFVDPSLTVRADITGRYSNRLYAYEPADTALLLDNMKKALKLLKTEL
Experimental: For specificity ELISAs on purified human and mouse IgGs, a 384-well plate was coated with a panel of purified human or mouse antigens at 88 ng per well and incubated overnight at 4° C. The plate was blocked and washed as described above, then 22 μL of purified mouse or human anti-PCSK9 antibody diluted to 2 μg/mL in PBS was added to each well. The plate was incubated for 1 hr at 37° C. then washed with PBST. Anti-mouse Fc antibody (Jackson ImmunoResearch Labs #115-035-071) or anti-human kappa antibody (Sigma #A7164) conjugated to HRP was diluted 1:5000 in PBS (25 μL) and added to each well. The plate was incubated for 1 hr at room temperature, then washed and developed as described above.
In order to test whether the antigen specificity of the parental mouse antibody LFU720 was retained in the final Humaneered™ IgGs, LGT209, LGT210 and LGT211, binding of the antibodies to a panel of human and mouse antigens (as well as human PCSK9) was tested in an ELISA assay.

[3] = target: T3, A685X (human, UniProt Q8NBP7); test: co-immunoprecipitation with 5P20, blot
T3 construct: C-terminal truncation mutant, expressed protein; also called C-term mutant A685X

[4] = target: T4, R682X (human, UniProt Q8NBP7); test: co-immunoprecipitation with 5P20, blot
T4 construct: C-terminal truncation mutant, expressed protein; also called Pcsk9 C-term mutant R682X

[5] = target: T5, S681X (human, UniProt Q8NBP7); test: co-immunoprecipitation with 5P20, blot
T5 construct: C-terminal truncation mutant, expressed protein; also called Pcsk9 C-term mutant S681X

[6] = target: T6, H683X (human, UniProt Q8NBP7); test: co-immunoprecipitation with 5P20, blot
T6 construct: C-terminal truncation mutant, expressed protein; also called Pcsk9 C-term mutant H683X

[7] = target: T1, recombinant human Pcsk9 (aa 31-692) …; test: TR-FRET, disruption of hLDL-R-Eu and hPcsk9-AF
Experimental: The TR-FRET assay was performed in 384-well white, shallow plates (Perkin Elmer, 6008280). hPcsk9-AF (10.7 nM) was incubated with serial dilutions of unlabeled hPcsk9 protein, EGF-A peptide, or NVP-LFU720-AX-1 antibody for 30 minutes at room temperature in 15 μL of assay buffer (20 mM HEPES, pH 7.2, 150 mM NaCl, 1 mM CaCl₂, 0.1% v/v Tween 20, and 0.1% w/v BSA). This was followed by addition of 5 μL of hLDL-R-Eu (4 nM) in assay buffer to the hPcsk9 and NVP-LFU720-AX-1 preincubated complex, and incubation at room temperature for 90 minutes. The final concentrations of these labeled proteins were 8 nM of hPcsk9-AF and 1 nM of hLDL-R-Eu. The TR-FRET signal was measured with EnVision 2100 multilabel reader (Perkin Elmer) at 330 nm excitation and 665 nm emission. Data was converted to normalized values using the following formula: [(665 nm value×10,000)/(615 nm value)]. The percentage inhibition was calculated with the following formula: 100-[(normalized value of treated sample/averaged normalized value of untreated samples)×100]. The percentage inhibition dose response curves were plotted using Prism version 5 with the formula, Y=Bottom+(Top−Bottom)/(1+10̂((LogIC₅₀−X)*HillSlope)) (GraphPad Prism Software).
TR-FRET assay was used for determining if the anti-hPcsk9 antibody NVP-LFU720 could disrupt the interaction between hPcsk9-AF and hLDL-R-Eu labeled proteins. […]

[8] = target: T1, recombinant human Pcsk9 (aa 31-692) …; test: SPR (Biacore S51), antibody captured by anti-mouse Fcγ, Pcsk9 in flow
Experimental: Binding studies of Pcsk9 to the LFU720 (2 μg/mL) were carried out by capturing the mouse antibody with a rabbit anti-mouse Fcγ antibody (Biacore #BR-1005-14) that was previously immobilized onto a Series S CM-5 Biacore sensor chip (certified) (Biacore #BR-1005-30). Covalent binding of the Fcγ capture antibody was done with the ‘Amine Coupling Kit’ (Biacore #BR-1000-50). The capture antibody (rabbit-anti-mouse) was attached to the EDCactivated dextran surface with a 50 μg/mL anti-Fcγ antibody solution in 10 mM sodium acetate, pH 5 (Biacore #BR-1003-51) at a flow rate of 10 μL/min. A range of concentrations of Pcsk9 from 0.5 μM to 7.8 nM (2 fold serial dilution) were flowed over the captured LFU720 chip in PBS plus 100 mM NaCl, 0.005% P20 (Biacore #BR-1000-54). The resulting sensorgrams were analyzed using the Biacore S51 Evaluation Software. Data from all concentrations was fitted globally to a 1:1 Langmuir model.
Target sequence in this assay (Q8NBP7 other isoform, or with tags, fused parts or gaps limits assumed, form in doubt): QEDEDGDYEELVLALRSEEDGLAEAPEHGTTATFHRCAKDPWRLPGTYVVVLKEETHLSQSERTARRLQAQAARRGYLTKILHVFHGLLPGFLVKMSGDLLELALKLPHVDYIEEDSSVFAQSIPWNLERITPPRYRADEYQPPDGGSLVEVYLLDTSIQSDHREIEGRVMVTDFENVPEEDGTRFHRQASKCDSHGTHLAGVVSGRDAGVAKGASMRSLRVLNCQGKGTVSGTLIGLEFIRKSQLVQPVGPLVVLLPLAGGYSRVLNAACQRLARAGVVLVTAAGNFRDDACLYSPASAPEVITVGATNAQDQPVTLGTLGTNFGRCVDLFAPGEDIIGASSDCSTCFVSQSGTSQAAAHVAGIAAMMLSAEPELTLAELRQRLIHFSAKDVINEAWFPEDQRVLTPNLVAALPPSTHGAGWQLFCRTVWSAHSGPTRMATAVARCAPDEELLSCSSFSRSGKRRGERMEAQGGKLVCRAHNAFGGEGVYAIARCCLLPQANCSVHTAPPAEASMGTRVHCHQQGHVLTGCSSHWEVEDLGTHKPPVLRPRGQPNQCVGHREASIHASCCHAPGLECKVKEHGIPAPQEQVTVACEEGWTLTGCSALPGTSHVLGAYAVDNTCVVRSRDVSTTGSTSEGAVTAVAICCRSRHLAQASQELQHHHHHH

T4 sequence (Q8NBP7 31-681 limits assumed): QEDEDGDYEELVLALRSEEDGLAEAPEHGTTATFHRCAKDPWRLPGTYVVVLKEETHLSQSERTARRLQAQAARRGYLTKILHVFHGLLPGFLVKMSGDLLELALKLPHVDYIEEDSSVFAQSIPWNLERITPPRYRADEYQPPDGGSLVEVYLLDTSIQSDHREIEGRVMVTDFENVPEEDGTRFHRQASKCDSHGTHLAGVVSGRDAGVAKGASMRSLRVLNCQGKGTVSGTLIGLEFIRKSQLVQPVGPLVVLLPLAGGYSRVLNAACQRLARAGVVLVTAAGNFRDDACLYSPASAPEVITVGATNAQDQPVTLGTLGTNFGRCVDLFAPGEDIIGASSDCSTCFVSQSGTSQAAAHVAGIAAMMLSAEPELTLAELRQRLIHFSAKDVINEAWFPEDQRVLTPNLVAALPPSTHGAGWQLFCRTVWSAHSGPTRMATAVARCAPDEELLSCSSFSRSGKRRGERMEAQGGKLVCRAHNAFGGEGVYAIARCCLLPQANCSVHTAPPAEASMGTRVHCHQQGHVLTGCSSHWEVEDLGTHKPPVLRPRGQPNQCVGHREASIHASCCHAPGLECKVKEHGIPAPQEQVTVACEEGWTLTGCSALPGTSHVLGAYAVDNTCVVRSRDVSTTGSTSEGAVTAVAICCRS
T3 sequence (Q8NBP7 31-684 limits assumed): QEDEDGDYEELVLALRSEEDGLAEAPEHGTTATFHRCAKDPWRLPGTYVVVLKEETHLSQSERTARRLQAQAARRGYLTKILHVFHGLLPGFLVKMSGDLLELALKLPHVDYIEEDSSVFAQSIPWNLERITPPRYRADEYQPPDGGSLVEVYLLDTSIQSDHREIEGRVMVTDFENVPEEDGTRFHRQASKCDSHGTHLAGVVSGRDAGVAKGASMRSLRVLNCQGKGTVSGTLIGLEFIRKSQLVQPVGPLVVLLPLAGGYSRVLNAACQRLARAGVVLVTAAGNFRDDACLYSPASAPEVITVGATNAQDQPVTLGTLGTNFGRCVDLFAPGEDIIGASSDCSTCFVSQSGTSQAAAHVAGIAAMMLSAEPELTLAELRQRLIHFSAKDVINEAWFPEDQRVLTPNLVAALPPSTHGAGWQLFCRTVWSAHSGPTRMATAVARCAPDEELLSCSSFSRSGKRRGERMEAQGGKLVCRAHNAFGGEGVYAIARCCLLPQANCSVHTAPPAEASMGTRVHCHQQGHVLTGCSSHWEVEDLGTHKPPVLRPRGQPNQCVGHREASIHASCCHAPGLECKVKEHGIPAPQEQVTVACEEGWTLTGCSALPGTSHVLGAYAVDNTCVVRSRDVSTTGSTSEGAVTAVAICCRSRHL
T6 sequence (Q8NBP7 31-682 limits assumed): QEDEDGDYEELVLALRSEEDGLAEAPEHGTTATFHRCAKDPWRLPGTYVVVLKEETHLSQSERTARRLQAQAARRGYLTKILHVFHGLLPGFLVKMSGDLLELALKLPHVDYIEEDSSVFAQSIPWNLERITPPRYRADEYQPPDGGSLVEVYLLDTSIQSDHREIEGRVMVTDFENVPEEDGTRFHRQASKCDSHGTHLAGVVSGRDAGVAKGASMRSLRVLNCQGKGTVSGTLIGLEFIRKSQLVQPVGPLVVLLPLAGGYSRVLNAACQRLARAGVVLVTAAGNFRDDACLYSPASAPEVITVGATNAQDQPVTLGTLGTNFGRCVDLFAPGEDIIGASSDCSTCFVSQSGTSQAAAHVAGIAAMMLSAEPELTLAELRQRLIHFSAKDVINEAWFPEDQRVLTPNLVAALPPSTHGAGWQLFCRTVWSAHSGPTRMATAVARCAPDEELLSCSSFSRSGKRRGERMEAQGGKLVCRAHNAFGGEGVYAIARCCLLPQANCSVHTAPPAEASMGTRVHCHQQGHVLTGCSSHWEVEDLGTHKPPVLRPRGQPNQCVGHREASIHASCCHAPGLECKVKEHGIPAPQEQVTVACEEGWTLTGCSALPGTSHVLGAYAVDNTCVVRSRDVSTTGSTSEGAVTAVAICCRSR
T5 sequence (Q8NBP7 31-680 limits assumed): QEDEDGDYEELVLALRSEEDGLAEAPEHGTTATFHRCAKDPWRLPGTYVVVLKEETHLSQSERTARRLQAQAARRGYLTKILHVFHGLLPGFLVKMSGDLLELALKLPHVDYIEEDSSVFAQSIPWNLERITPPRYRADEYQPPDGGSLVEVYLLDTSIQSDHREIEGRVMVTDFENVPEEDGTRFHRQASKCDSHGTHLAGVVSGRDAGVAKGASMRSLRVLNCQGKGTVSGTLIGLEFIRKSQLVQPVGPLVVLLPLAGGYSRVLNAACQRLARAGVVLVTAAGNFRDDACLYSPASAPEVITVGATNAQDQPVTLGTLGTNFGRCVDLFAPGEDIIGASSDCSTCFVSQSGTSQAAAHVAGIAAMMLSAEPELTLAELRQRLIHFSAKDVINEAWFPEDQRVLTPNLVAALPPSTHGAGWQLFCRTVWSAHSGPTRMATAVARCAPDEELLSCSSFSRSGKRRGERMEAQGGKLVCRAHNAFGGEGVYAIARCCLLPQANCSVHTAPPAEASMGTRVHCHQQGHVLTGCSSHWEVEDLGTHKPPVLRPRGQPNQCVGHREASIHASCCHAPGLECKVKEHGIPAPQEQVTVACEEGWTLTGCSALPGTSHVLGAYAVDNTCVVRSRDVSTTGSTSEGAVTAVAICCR

B1: NVP-LGT211 (antibody, human IgG1, V domains shown)
VH: QVQLVQSGAEVKKPGASVKVSCKASGYTFSTMYMSWVRQAPGQGLEWMGRIDPANEHTNYAQKFQGRVTMTRDTSISTAYMELSRLTSDDTAVYYCARSYYYYAMDYWGQGTLVTVSS
VL: QIVLTQSPATLSVSPGERATLSCRASQSVSYMHWYQQKPGQAPRLLIYGVFRRATGIPDRFSGSGSGTDFTLTIGRLEPEDFAVYYCLQWSSDPPTFGQGTKLEIKR
notes: Silent human IgG1 kappa; also called pSR74 (Vh) + pJG10 (Vk); pSR074 + pJG10
- Kd [1]: 0.19 nM
- binding result [2]: no binding (tested: 2 µg/mL)

B2: NVP-LFU720 (antibody, V domains shown)
VH: EVQLQQSGAELMKPGASVKLSCTASGFNIKDMYMSWVRQRPEQGLEWIGRIDPANGHTNYDPKFQAKATITTDTSSKTAYLHLSSLTSEDTAVYYCARSYYYYAMDYWGQGTSVTVSS
VL: QIVLTQSPAIMSASPGEKVTMTCSASSSVSYMHWYQQKPGSSPRLWIYLTFNLASGVPARFSGSGSGTSYSLSISSMEAEDAATYYCLQWSSDPPTFGSGTKLEIK
notes: Murine anti-human Pcsk9 IgG1-kappa monoclonal antibody from a hybridoma; also called 5P20; NVP-LFU720-AX-1
- binding result [3]: no binding
- binding result [4]: no binding
- binding result [5]: no binding
- binding result [6]: no binding
- IC50 [7]: > 1000 nM
- Kd [8]: 0.2 nM
- binding result [2]: no binding (tested: 2 µg/mL)
